Data on two molecules can be found in patent publication WO2002045743A2.

For test [1], the target named is MH2 peptide (Hepatitis C virus). The test can be described thus: peptide EIA (Table 4).
For test [2] the target is unchanged. The experiment in a line: peptide EIA, Nunc-Immuno and CovaLab plates.
The target is the same in test [3]. The test can be described thus: IAsys biosensor, BSA-HVR1 peptide conjugate.

B1: mAb 2P24 (antibody)
chain 1: EFQLQQSGAELVRPGPLVTLSCKASGFNIKDYYMNWVKQRPEQGLEWIGRIDPKNGNALYDPKFQDKARITADTSSNTAYLQLNSLTSEATAVYYCSSGWLDYWGQGTSLAVYS
chain 2: DIVMTQSPASLAVFRGQRATISYRASKSVSTSGYSYMHWNQQKPGQPPRLLIYLVSNLESGVPARFSGSGSGTDFTLNIHPVEEEDAATYYCQHIRELTAFGGGTK
What is called Kd is the free concentration of one partner at which half of the binding sites on the other are occupied at equilibrium, for simple one-to-one binding. Higher therefore signals lower affinity. For B1, the EIA Sample/Cutoff ratio (S/CO) in test [1] and in test [2] was 24.9 S/CO each time. In addition, the Kd in test [3] was 5.85 nM.

B2: mAb 15H4 (antibody)
chain 1: QVQLQQSGAELARPGASVKLSCKASGYTFTRYWMQWVKQKPGQGLEWIGAIYCGDGDTRFTQKFKGKATLTADKSSSTAYMQLSNLASEDSAVYYCVIYGNYYDAMDYWGQGTSVTVSS
chain 2: DIVMTQAPLSMPVSLGDQASISGRSSQSLVHSNGNTYLHWYLQKPGQSPKLLIHKVSKRFSGVPDRFSGSGSGTDFTLKIRRVEAEDLGVYFCSQNTHVPFTFGGGTK
Consider B2, for which the EIA Sample/Cutoff ratio (S/CO) came out at 13.6 S/CO in test [1] and 18.1 S/CO in test [2]. Moreover, the Kd in test [3] amounted to 21.5 nM.
